US20160340439A1

Legend:
Experiment in all cases: IP + mass spec of B16 melanoma proteins; ratio to alloIgG
[1] = target: Fibrous sheath-interacting protein 2 (mouse) (UniProt A2ARZ3)
[2] = target: CDGSH iron-sulfur domain-containing protein 1 (mouse) (UniProt Q91WS0)
[3] = target: Vacuolar protein sorting-associated protein 35 (mouse) (UniProt Q9EQH3)
[4] = target: Trifunctional enzyme subunit beta, mitochondrial (mouse) (UniProt Q99JY0)
[5] = target: Translocation protein SEC62 (mouse) (UniProt Q8BU14)
UniProt Q8BU14, sequence (Q8BU14 whole entry): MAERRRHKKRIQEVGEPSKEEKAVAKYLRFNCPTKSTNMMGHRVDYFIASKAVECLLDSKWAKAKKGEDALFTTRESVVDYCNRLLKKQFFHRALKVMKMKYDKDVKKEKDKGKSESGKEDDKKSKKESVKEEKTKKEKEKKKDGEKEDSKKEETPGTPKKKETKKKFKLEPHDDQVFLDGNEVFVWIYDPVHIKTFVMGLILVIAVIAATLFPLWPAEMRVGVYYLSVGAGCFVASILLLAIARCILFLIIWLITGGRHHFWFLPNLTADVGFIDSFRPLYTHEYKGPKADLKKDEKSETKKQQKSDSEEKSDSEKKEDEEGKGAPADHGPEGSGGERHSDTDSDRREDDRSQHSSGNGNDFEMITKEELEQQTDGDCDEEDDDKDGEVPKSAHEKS

[6] = target: Mitochondrial inner membrane protein (mouse) (UniProt Q8CAQ8)
UniProt Q8CAQ8, sequence (Q8CAQ8 34-757 limits assumed): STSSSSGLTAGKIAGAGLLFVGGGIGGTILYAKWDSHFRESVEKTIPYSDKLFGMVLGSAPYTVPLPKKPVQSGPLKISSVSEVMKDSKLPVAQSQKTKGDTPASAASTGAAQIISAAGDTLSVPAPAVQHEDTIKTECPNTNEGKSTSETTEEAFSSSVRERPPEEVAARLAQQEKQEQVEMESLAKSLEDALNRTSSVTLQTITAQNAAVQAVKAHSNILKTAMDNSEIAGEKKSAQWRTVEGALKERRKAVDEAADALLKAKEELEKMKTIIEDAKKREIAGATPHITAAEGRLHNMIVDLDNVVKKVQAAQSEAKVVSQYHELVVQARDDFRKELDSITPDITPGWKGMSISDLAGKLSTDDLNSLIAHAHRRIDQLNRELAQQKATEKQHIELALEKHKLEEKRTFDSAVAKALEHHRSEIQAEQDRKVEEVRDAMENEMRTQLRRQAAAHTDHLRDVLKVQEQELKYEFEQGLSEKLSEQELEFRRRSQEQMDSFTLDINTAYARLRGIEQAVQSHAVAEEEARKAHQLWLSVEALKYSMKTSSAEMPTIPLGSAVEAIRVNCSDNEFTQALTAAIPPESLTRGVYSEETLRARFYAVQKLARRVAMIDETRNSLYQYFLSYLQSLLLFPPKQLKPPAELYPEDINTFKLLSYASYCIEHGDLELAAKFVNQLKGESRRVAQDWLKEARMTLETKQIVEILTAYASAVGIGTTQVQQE

[7] = target: Arginine and glutamate-rich protein 1 (mouse) (UniProt Q3UL36)
UniProt Q3UL36, sequence (Q3UL36 whole entry): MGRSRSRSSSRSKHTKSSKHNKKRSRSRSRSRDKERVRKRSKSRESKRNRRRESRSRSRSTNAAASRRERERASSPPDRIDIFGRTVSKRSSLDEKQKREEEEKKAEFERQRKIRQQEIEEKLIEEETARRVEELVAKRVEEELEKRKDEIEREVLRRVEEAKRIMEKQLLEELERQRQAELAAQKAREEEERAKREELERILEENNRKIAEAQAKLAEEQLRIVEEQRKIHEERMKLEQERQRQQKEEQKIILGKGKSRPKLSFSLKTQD

[8] = target: Disco-interacting protein 2 homolog B (mouse) (UniProt Q3UH60)
UniProt Q3UH60, sequence (Q3UH60 whole entry): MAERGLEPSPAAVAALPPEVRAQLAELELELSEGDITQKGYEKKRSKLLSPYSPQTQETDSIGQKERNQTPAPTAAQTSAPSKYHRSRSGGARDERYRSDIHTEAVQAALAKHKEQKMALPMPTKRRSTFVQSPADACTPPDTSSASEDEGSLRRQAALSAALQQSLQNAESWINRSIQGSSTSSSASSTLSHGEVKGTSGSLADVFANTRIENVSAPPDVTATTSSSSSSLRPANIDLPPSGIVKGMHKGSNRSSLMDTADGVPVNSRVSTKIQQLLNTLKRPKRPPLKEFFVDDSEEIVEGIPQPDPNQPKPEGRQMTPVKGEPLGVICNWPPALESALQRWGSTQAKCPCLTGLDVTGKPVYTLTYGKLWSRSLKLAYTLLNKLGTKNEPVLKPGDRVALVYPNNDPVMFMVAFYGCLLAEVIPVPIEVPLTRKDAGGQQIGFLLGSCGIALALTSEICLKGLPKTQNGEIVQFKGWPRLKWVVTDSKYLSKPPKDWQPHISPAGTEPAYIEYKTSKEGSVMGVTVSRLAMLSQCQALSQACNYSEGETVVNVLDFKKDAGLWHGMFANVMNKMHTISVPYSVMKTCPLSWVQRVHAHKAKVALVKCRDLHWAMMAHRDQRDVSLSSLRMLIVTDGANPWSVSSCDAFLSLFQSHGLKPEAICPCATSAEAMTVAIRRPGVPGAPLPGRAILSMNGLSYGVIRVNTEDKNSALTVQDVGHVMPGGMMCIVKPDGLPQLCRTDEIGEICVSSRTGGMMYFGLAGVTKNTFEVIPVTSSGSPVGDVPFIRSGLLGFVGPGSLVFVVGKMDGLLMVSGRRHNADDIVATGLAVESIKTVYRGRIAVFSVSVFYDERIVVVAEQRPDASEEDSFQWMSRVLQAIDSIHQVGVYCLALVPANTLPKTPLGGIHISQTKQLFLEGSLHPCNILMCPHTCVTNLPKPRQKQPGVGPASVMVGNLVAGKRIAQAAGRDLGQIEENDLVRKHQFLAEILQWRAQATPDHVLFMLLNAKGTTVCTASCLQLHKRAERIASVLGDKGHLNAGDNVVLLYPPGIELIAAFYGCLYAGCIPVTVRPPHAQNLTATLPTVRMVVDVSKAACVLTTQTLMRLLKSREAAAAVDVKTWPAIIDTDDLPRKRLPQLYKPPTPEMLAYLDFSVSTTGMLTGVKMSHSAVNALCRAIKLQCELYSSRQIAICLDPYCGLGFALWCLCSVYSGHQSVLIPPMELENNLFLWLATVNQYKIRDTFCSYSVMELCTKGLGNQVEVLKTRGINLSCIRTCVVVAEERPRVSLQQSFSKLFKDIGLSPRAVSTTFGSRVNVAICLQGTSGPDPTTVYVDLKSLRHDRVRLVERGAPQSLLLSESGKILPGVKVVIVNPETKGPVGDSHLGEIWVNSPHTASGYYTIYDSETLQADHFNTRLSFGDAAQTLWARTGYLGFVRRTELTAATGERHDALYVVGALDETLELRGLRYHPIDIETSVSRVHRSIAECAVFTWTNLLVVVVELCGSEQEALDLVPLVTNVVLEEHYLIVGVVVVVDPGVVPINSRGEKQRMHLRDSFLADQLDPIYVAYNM

[9] = target: Nicalin (mouse) (UniProt Q8VCM8)
UniProt Q8VCM8, sequence (Q8VCM8 43-563 limits assumed): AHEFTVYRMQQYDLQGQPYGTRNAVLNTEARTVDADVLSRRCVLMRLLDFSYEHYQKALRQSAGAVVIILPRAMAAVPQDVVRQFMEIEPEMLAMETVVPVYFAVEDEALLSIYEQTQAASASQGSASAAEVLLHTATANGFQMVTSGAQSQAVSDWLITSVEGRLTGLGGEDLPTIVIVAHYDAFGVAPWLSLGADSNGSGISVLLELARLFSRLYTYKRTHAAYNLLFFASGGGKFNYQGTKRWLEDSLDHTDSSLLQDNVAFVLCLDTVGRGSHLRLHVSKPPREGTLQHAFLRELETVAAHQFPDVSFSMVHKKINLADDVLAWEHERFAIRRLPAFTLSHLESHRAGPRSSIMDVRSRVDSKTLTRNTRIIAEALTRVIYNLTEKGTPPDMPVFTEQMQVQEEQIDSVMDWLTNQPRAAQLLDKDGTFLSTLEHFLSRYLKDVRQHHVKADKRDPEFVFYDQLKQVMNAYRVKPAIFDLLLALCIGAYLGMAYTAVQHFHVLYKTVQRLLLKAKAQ

[10] = target: Stromal cell-derived factor 2-like protein 1 (mouse) (UniProt Q9ESP1)
UniProt Q9ESP1, sequence (Q9ESP1 29-221 limits assumed): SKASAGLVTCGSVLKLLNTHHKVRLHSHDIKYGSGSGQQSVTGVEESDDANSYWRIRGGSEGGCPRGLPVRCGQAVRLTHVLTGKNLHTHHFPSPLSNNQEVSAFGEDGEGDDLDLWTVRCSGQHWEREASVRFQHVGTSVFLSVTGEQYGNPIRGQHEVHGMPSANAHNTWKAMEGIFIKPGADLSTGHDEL

[11] = target: Angiomotin-like protein 2 (mouse) (UniProt Q8K371)
UniProt Q8K371, sequence (Q8K371 whole entry): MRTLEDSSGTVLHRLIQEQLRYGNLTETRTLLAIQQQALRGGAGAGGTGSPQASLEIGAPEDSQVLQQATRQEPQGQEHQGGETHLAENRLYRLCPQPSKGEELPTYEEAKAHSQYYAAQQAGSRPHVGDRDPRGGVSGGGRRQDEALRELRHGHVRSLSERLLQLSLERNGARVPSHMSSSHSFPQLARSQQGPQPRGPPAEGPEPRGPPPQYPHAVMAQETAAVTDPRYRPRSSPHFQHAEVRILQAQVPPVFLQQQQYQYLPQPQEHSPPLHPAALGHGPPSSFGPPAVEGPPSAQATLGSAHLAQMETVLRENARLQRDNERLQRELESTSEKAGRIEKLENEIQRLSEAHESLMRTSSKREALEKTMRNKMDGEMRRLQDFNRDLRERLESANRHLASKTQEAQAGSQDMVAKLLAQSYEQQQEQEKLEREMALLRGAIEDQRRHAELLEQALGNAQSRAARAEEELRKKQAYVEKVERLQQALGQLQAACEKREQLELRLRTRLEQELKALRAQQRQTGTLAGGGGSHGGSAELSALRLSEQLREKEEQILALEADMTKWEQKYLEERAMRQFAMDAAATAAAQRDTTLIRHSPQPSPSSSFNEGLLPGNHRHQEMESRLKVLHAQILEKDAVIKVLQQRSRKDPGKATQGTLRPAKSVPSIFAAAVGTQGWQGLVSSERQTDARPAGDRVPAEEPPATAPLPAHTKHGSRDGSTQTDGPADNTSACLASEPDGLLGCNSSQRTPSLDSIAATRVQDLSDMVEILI

UniProt Q91WS0, sequence (Q91WS0 whole entry, the tested form may be a part): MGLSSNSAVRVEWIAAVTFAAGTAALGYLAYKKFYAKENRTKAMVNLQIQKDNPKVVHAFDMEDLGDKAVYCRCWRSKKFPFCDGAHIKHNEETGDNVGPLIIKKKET
UniProt Q99JY0, sequence (Q99JY0 35-475 limits assumed): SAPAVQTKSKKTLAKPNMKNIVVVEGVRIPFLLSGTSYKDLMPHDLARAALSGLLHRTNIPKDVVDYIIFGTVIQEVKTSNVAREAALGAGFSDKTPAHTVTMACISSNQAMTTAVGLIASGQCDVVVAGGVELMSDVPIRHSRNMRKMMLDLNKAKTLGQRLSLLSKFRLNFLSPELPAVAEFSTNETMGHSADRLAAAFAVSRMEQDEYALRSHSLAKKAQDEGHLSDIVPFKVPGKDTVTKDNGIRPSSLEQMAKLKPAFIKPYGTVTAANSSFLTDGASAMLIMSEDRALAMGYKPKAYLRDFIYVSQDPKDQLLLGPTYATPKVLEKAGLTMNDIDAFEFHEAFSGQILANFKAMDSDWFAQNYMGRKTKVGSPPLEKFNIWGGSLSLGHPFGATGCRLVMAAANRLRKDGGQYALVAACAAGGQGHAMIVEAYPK

syngeneic IgG (from sera of C57B1/6 mice) (antibody)
syn/allo ratio [1]: 9
syn/allo ratio [2]: 2
syn/allo ratio [3]: 2
syn/allo ratio [4]: 2.6
syn/allo ratio [5]: 4
syn/allo ratio [6]: 2.99
syn/allo ratio [7]: 2
syn/allo ratio [8]: 4
syn/allo ratio [9]: 2
syn/allo ratio [10]: 3
syn/allo ratio [11]: 6
